# Experimental data: article PMC6356061
# Key:
# [1] = molecular target: NMDA receptor GluN1 subunit (mouse (endogenous in primary cortical neurons)) (UniProt P35438)
# [2] = molecular target: NMDA receptor GluN1 subunit (mouse (endogenous in primary cortical neurons)) (UniProt P35438); assay: co-IP; extracts of neurons exposed 10 min to 14.4 nM biotinylated Fib-Tau; immunoprecipitation with anti-α3-NKA, anti-GluA2 or anti-GluN1 and protein G magnetic beads, 4°C; Fib-Tau detected on slot blot with streptavidin-HRP; controls with pre-immune goat or rabbit IgG
substance,measurement,setting,value
Biotin-labelled fibrillar Tau-1N3R (Fib-Tau-1N3R) (from UniProt P10636-4 1-381) (natural protein),"change in the amount (fluorescence intensity) of synaptic GluN1-NMDA after exposure of neurons to Fib-Tau (0.36 nM, 60 min); no change",[1],-3.2%
same,fold enrichment in Tau band intensity over pre-immune IgG control,[2],1.8 fold
